From IntAct's records for PubMed 18334649

B1: Receptor tyrosine-protein kinase erbB-4 (Homo sapiens), Q15303 (parent)
chain: MKPATGLWVWVSLLVAAGTVQPSDSQSVCAGTENKLSSLSDLEQQYRALRKYYENCEVVMGNLEITSIEHNRDLSFLRSVREVTGYVLVALNQFRYLPLENLRIIRGTKLYEDRYALAIFLNYRKDGNFGLQELGLKNLTEILNGGVYVDQNKFLCYADTIHWQDIVRNPWPSNLTLVSTNGSSGCGRCHKSCTGRCWGPTENHCQTLTRTVCAEQCDGRCYGPYVSDCCHRECAGGCSGPKDTDCFACMNFNDSGACVTQCPQTFVYNPTTFQLEHNFNAKYTYGAFCVKKCPHNFVVDSSSCVRACPSSKMEVEENGIKMCKPCTDICPKACDGIGTGSLMSAQTVDSSNIDKFINCTKINGNLIFLVTGIHGDPYNAIEAIDPEKLNVFRTVREITGFLNIQSWPPNMTDFSVFSNLVTIGGRVLYSGLSLLILKQQGITSLQFQSLKEISAGNIYITDNSNLCYYHTINWTTLFSTINQRIVIRDNRKAENCTAEGMVCNHLCSSDGCWGPGPDQCLSCRRFSRGRICIESCNLYDGEFREFENGSICVECDPQCEKMEDGLLTCHGPGPDNCTKCSHFKDGPNCVEKCPDGLQGANSFIFKYADPDRECHPCHPNCTQGCNGPTSHDCIYYPWTGHSTLPQHARTPLIAAGVIGGLFILVIVGLTFAVYVRRKSIKKKRALRRFLETELVEPLTPSGTAPNQAQLRILKETELKRVKVLGSGAFGTVYKGIWVPEGETVKIPVAIKILNETTGPKANVEFMDEALIMASMDHPHLVRLLGVCLSPTIQLVTQLMPHGCLLEYVHEHKDNIGSQLLLNWCVQIAKGMMYLEERRLVHRDLAARNVLVKSPNHVKITDFGLARLLEGDEKEYNADGGKMPIKWMALECIHYRKFTHQSDVWSYGVTIWELMTFGGKPYDGIPTREIPDLLEKGERLPQPPICTIDVYMVMVKCWMIDADSRPKFKELAAEFSRMARDPQRYLVIQGDDRMKLPSPNDSKFFQNLLDEEDLEDMMDAEEYLVPQAFNIPPPIYTSRARIDSNRSEIGHSPPPAYTPMSGNQFVYRDGGFAAEQGVSVPYRAPTSTIPEAPVAQGATAEIFDDSCCNGTLRKPVAPHVQEDSSTQRYSADPTVFAPERSPRGELDEEGYMTPMRDKPKQEYLNPVEENPFVSRRKNGDLQALDNPEYHNASNGPPKAEDEYVNEPLYLNTFANTLGKAEYLKNNILSMPEKAKKAFDNPDYWNHSLPPRSTLQHPDYLQEYSTKYFYKQNGRIRPIVAENPEYLSEFSLKPGTVLPPPPYRHRNTVV

Variants of: B1
Settings: with ITCH

Row | Variant | effect of a mutation on the interaction
1 | P1054A | disrupting interaction
2 | Y1056F | disrupting interaction
